According to the supplement of paper PMC10567573:

B1: C10orf62 (parent)
chain: RALEEVEMKLQKNFLTQRENTIAG

Variants of: B1
Assay: protein stability index of a GFP-peptide fusion (GPS, HEK-293T) (PSI 1-6); higher = more stable
Details: c terminus: a fixed tail appended
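Also: lentivirally expressed fusions sorted by FACS into six bins by GFP to DsRed ratio, PSI derived from sequencing read proportions per bin multiplied by bin number.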

First: RALEEVEMKLQKNFLTQRENTGAG [I22G]
Second: RALEEVEMKLQKNFLTQRENTMAG [I22M]
The protein stability index of the first is higher: 4.34 for the first, 3.54 for the second.

Going from RALEEVEMKLQKNFLTQRENTLAG [I22L] to RALEEVEMKLQKNFLTQRENTHAG [I22H], the protein stability index rises from 3.21 to 3.8.

First: RALEEVEMKLQKNFLTQRENTRAG [I22R]
Second: RALEEVEMKLQKNFLTQRENTQAG [I22Q]
The protein stability index of the first is lower: 3.15 for the first, 4.09 for the second.

Compared with RALEEVEMKLQKNFLTQRENTYAG [I22Y], RALEEVEMKLQKNFLTQRENTSAG [I22S] is higher in protein stability index: 3.38 for the first, 3.88 for the second.

Going from RALEEVEMKLQKNFLTQRENTCAG [I22C] to RALEEVEMKLQKNFLTQRENTNAG [I22N], the protein stability index rises from 3.92 to 3.98.

Going from RALEEVEMKLQKNFLTQRENTVAG [I22V] to RALEEVEMKLQKNFLTQRENTTAG [I22T], the protein stability index rises from 3.59 to 3.89.

First: RALEEVEMKLQKNFLTQRENTEAG [I22E]
Second: RALEEVEMKLQKNFLTQRENTAAG [I22A]
The protein stability index of the first is higher: 4.75 for the first, 4.15 for the second.

Going from RALEEVEMKLQKNFLTQRENTWAG [I22W] to RALEEVEMKLQKNFLTQRENTPAG [I22P], the protein stability index rises from 2.38 to 3.38.

Going from RALEEVEMKLQKNFLTQRENTFAG [I22F] to RALEEVEMKLQKNFLTQRENTDAG [I22D], the protein stability index rises from 2.68 to 4.11.

Going from RALEEVEMKLQKNFLTQREETIAG [N20E] to RALEEVEMKLQKNFLTQREITIAG [N20I], the protein stability index falls from 4.17 to 2.61.

Compared with RALEEVEMKLQKNFLTQREPTIAG [N20P], RALEEVEMKLQKNFLTQREVTIAG [N20V] is lower in protein stability index: 3.73 for the first, 3.35 for the second.

First: RALEEVEMKLQKNFLTQREYTIAG [N20Y]
Second: RALEEVEMKLQKNFLTQREDTIAG [N20D]
The protein stability index of the first is lower: 2.64 for the first, 3.96 for the second.

Compared with RALEEVEMKLQKNFLTQRELTIAG [N20L], RALEEVEMKLQKNFLTQREMTIAG [N20M] is higher in protein stability index: 2.45 for the first, 3.18 for the second.

Going from RALEEVEMKLQKNFLTQREWTIAG [N20W] to RALEEVEMKLQKNFLTQRERTIAG [N20R], the protein stability index rises from 2.03 to 3.29.

First: RALEEVEMKLQKNFLTQRESTIAG [N20S]
Second: RALEEVEMKLQKNFLTQREGTIAG [N20G]
The protein stability index of the first is higher: 3.7 for the first, 3.6 for the second.

Going from RALEEVEMKLQKNFLTQREKTIAG [N20K] to RALEEVEMKLQKNFLTQRETTIAG [N20T], the protein stability index falls from 3.75 to 3.7.

Compared with RALEEVEMKLQKNFLTQRECTIAG [N20C], RALEEVEMKLQKNFLTQREFTIAG [N20F] is lower in protein stability index: 3.07 for the first, 2.52 for the second.

First: RALEEVEMKLQKNFLTQREHTIAG [N20H]
Second: RALEEVEMKLQKNFLTQREATIAG [N20A]
The protein stability index of the first is lower: 2.85 for the first, 3.24 for the second.

Compared with RALEEVEMKLQKNFLTQREQTIAG [N20Q], RALEEVEMKLQKNFLTQRENTIDG [A23D] is higher in protein stability index: 3.81 for the first, 4.19 for the second.

Compared with RALEEVEMKLQKNFLTQRENTIVG [A23V], RALEEVEMKLQKNFLTQRENTIKG [A23K] is higher in protein stability index: 3.44 for the first, 4.31 for the second.

Compared with RALEEVEMKLQKNFLTQRENTING [A23N], RALEEVEMKLQKNFLTQRENTIFG [A23F] is lower in protein stability index: 3.2 for the first, 2.66 for the second.

First: RALEEVEMKLQKNFLTQRENTIRG [A23R]
Second: RALEEVEMKLQKNFLTQRENTIYG [A23Y]
The protein stability index of the first is higher: 3.51 for the first, 2.91 for the second.

First: RALEEVEMKLQKNFLTQRENTIPG [A23P]
Second: RALEEVEMKLQKNFLTQRENTIMG [A23M]
The protein stability index of the first is higher: 3.93 for the first, 3.05 for the second.

Compared with RALEEVEMKLQKNFLTQRENTIEG [A23E], RALEEVEMKLQKNFLTQRENTITG [A23T] is lower in protein stability index: 4.28 for the first, 3.67 for the second.

Compared with RALEEVEMKLQKNFLTQRENTISG [A23S], RALEEVEMKLQKNFLTQRENTIIG [A23I] is lower in protein stability index: 3.42 for the first, 3.02 for the second.

First: RALEEVEMKLQKNFLTQRENTIQG [A23Q]
Second: RALEEVEMKLQKNFLTQRENTIGG [A23G]
The protein stability index of the first is higher: 3.64 for the first, 3.41 for the second.

First: RALEEVEMKLQKNFLTQRENTIWG [A23W]
Second: RALEEVEMKLQKNFLTQRENTIHG [A23H]
The protein stability index of the first is lower: 2.07 for the first, 3.19 for the second.

Going from RALEEVEMKLQKNFLTQRENTICG [A23C] to RALEEVEMKLQKNFLTQRENTILG [A23L], the protein stability index falls from 3.36 to 3.02.

Compared with RALEEVEMKLQKNFLTQVENTIAG [R18V], RALEEVEMKLQKNFLTQDENTIAG [R18D] is higher in protein stability index: 2.35 for the first, 4.59 for the second.

Going from RALEEVEMKLQKNFLTQGENTIAG [R18G] to RALEEVEMKLQKNFLTQFENTIAG [R18F], the protein stability index falls from 3.73 to 2.53.

Going from RALEEVEMKLQKNFLTQNENTIAG [R18N] to RALEEVEMKLQKNFLTQHENTIAG [R18H], the protein stability index falls from 4.05 to 3.96.

First: RALEEVEMKLQKNFLTQLENTIAG [R18L]
Second: RALEEVEMKLQKNFLTQQENTIAG [R18Q]
The protein stability index of the first is lower: 2.08 for the first, 3.85 for the second.

First: RALEEVEMKLQKNFLTQKENTIAG [R18K]
Second: RALEEVEMKLQKNFLTQEENTIAG [R18E]
The protein stability index of the first is lower: 3.74 for the first, 4.29 for the second.

Going from RALEEVEMKLQKNFLTQYENTIAG [R18Y] to RALEEVEMKLQKNFLTQIENTIAG [R18I], the protein stability index rises from 2.64 to 3.09.

First: RALEEVEMKLQKNFLTQMENTIAG [R18M]
Second: RALEEVEMKLQKNFLTQSENTIAG [R18S]
The protein stability index of the first is lower: 3.12 for the first, 4.18 for the second.

Compared with RALEEVEMKLQKNFLTQWENTIAG [R18W], RALEEVEMKLQKNFLTQAENTIAG [R18A] is higher in protein stability index: 2.47 for the first, 3.19 for the second.

Compared with RALEEVEMKLQKNFLTQCENTIAG [R18C], RALEEVEMKLQKNFLTQTENTIAG [R18T] is higher in protein stability index: 2.91 for the first, 3.46 for the second.

First: RALEEVEMKLQKNFLTQPENTIAG [R18P]
Second: RALEEVEMKLQKNFLTQRENFIAG [T21F]
The protein stability index of the first is higher: 3.72 for the first, 2.86 for the second.

Compared with RALEEVEMKLQKNFLTQRENDIAG [T21D], RALEEVEMKLQKNFLTQRENRIAG [T21R] is lower in protein stability index: 3.92 for the first, 3.2 for the second.

Compared with RALEEVEMKLQKNFLTQRENHIAG [T21H], RALEEVEMKLQKNFLTQRENPIAG [T21P] is higher in protein stability index: 3.69 for the first, 3.7 for the second.

Compared with RALEEVEMKLQKNFLTQRENGIAG [T21G], RALEEVEMKLQKNFLTQRENCIAG [T21C] is higher in protein stability index: 3.23 for the first, 3.73 for the second.

First: RALEEVEMKLQKNFLTQRENMIAG [T21M]
Second: RALEEVEMKLQKNFLTQRENVIAG [T21V]
The protein stability index of the first is lower: 3.27 for the first, 3.36 for the second.

Going from RALEEVEMKLQKNFLTQRENLIAG [T21L] to RALEEVEMKLQKNFLTQRENAIAG [T21A], the protein stability index rises from 3.2 to 3.56.

First: RALEEVEMKLQKNFLTQRENQIAG [T21Q]
Second: RALEEVEMKLQKNFLTQRENEIAG [T21E]
The protein stability index of the first is lower: 3.85 for the first, 4.16 for the second.

Going from RALEEVEMKLQKNFLTQRENIIAG [T21I] to RALEEVEMKLQKNFLTQRENYIAG [T21Y], the protein stability index falls from 3.34 to 2.69.

Compared with RALEEVEMKLQKNFLTQRENWIAG [T21W], RALEEVEMKLQKNFLTQRENKIAG [T21K] is higher in protein stability index: 2.93 for the first, 3.51 for the second.

Going from RALEEVEMKLQKNFLTQRENSIAG [T21S] to RALEEVEMKLQKNFLTQRENNIAG [T21N], the protein stability index falls from 4.06 to 3.61.
